{"source": "patent US20180057595A1", "about": "(CELLDEX THERAPEUTICS, published 2018)", "key": {"[1]": {"molecular_target": "T1, human MET-ECD with a His tag (MET-ECD-His) (human, UniProt P08581 25-932)", "T1 construct": "The ELISA sections speak of MET-ECD, MET-ECD-His or His-tagged MET extracellular domain; also called hu-MET-ECD; human cMET ECD", "T1 sequence (P08581 other isoform, or with tags, fused parts or gaps)": "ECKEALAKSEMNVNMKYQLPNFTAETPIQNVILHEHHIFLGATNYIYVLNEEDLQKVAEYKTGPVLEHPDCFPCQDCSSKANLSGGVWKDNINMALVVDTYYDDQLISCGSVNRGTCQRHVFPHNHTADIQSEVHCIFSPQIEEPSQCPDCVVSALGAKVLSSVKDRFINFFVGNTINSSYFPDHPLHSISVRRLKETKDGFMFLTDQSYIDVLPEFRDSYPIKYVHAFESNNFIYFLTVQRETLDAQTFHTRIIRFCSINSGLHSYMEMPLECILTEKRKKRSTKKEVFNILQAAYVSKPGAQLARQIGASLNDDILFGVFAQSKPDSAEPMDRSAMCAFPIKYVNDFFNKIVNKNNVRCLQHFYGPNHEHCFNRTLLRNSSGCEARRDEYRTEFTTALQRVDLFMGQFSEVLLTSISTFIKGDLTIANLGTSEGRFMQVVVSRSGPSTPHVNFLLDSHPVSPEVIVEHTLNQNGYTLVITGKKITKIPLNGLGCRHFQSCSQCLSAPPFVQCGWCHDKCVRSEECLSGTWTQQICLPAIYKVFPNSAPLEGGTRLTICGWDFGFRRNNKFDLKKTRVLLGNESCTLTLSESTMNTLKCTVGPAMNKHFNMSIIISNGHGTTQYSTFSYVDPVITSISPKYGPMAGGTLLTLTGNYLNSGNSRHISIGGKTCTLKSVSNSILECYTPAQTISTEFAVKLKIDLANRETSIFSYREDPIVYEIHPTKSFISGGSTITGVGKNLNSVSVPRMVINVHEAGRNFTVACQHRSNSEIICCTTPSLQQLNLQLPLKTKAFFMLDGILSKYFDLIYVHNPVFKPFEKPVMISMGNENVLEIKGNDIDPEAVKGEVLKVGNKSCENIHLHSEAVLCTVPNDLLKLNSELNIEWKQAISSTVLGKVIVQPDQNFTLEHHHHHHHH", "assay": "competition ELISA on immobilised MET-ECD; competitor Ab237C", "protocol": "The binding of anti-MET antibodies to recombinant MET extracellular domain (“MET-ECD”) was analyzed by competition ELISA. […] The reaction was stopped with 3M HCl, absorbance read at 450 nm on a Dynex Technologies MRX TC II plate reader and the binding curves plotted. Binding curves were used to calculate IC₅₀ values for each test antibody normalized to the IC₅₀ of the reference antibody."}, "[2]": {"molecular_target": "T2, human MET, cell-surface expressed (human, UniProt P08581 25-1390)", "T2 construct": "whole, on cells; Used for all assays on cells that carry wild-type human MET; the cell line is named under assay or readout; also called c-Met; hMET", "T2 sequence (P08581 25-1390)": "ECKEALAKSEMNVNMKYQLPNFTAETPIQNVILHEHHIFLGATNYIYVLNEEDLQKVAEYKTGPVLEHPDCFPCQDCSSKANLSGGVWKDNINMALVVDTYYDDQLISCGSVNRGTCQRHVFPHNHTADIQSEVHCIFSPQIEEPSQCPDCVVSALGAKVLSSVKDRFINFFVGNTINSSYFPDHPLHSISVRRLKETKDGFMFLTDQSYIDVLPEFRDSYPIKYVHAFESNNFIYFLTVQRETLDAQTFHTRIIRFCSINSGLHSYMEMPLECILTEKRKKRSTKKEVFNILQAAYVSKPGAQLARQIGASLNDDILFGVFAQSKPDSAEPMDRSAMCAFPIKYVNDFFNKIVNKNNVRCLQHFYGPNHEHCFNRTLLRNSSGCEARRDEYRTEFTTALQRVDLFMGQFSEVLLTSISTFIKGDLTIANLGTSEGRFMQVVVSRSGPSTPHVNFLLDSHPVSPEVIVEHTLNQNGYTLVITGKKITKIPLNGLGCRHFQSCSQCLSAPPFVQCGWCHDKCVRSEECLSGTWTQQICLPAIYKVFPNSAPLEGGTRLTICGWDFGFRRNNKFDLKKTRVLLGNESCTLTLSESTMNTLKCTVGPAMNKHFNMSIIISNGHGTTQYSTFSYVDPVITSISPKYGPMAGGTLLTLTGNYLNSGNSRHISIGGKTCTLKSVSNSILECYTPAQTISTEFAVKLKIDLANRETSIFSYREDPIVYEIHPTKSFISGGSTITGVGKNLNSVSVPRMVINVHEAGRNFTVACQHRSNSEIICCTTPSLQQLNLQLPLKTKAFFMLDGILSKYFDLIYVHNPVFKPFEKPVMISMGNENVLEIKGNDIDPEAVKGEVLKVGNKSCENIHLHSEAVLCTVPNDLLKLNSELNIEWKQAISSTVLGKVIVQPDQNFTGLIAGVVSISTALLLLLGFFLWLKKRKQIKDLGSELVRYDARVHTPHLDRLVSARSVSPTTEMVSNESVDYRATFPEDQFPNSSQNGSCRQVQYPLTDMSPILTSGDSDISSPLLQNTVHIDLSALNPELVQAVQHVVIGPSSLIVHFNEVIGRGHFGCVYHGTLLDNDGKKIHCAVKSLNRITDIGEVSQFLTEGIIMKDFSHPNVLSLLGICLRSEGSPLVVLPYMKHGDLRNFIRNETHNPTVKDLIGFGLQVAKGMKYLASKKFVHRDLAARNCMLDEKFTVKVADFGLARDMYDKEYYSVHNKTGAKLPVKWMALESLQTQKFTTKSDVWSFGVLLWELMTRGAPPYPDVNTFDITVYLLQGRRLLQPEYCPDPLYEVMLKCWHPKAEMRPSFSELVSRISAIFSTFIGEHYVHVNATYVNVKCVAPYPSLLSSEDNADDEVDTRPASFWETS", "assay": "FACS competition on A549 cells; competitor Ab237C", "experimental": "The binding of anti-MET antibodies to cell surface MET was analyzed by competition FACS analysis using A549 NSCLC cells (ATCC cat. no. CCL-185). […] A total of 3×10⁵ A549 NSCLC cells were added per dilution of antibody and incubated on ice for 1 hour. Cells were washed and a 1:100 dilution of PE-labeled goat anti-rat IgG antibody (BioLegend cat. no. 405406) in FACS buffer was added before incubation on ice for 1 hour. […] The geometric mean fluorescence intensity was plotted against antibody concentration. The IC₅₀ of each of the test antibodies was calculated relative to the IC₅₀ of the reference antibody."}}, "data": [{"binder": "Ab241 (antibody, human IgG1, V domains shown, Composite human (humanized) antibody, human IgG1, kappa) VH: EVQLVESGGGLVQPGGSLKLSCAASGFTFSDSYMAWVRQAPGKGLEWVASISSDGGGTYYRDSVKGRFTISRDNAKSSLYLQMDSLRTEDTATYYCTTEGIYTTDYYPYCFNYWGQGVMVTVSS VL: DIQMTQSPSSLSASVGDRVTITCLASADIHSNLAWYQQKPGKAPQLLIYYGNNLNDGVPSRFSGSGSGTDYTLKINSLQSEDVAIYFCQQSYDSPPTFGQGTKLEIKR", "values": [{"measurement": "IC50 relative to the IC50 of Ab237C", "setting": "[1]", "value": "~0.97 relative to IC50 of Ab237C"}, {"measurement": "relative IC50 (against Ab237C)", "setting": "[2]", "value": "~1.22 relative to IC50 of Ab237C"}]}]}
